{"source": "patent US8598081B2", "about": "“Specific delivery of agrochemicals” (priority 2010, dated 2013)", "target": "T1, potato lectin (Solanum tuberosum, UniProt Q9S8M0)", "T1 construct": "purchased Sigma", "T1 sequence (Q9S8M0 whole entry, looked up)": "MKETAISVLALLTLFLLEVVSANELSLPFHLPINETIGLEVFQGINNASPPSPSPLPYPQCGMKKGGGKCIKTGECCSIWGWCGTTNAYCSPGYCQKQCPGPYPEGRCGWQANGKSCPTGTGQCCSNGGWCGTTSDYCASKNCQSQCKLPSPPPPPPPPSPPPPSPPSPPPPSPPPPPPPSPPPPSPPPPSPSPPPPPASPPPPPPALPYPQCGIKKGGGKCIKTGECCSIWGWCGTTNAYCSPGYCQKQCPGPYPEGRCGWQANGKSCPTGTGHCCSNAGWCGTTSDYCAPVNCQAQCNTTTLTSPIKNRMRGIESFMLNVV", "assay": "ELISA-like assay, microcapsules with monovalent or bivalent VHH, potato lectin", "type": "binding", "parameters": "Surface area of bound microcapsules: unit not given here", "details": "for Surface area of bound microcapsules: Uvitex microcapsules", "text": "Bivalent VHH constructs were produced in bacteria by cloning two VHH sequences in tandem into the pASF22 vector, creating a fusion of two VHH with a 9 glycine-serine linker (GGGGSGGGS (SEQ ID NO:50)) in between the two VHH. pASF22 is an in-house produced pMES derivative. The tags that were used were C-terminal c-Myc (EQKLISEEDLN (SEQ ID NO:51)) and hexahistidine (HHHHHH (SEQ ID NO:52)). A triple alanine linker (AAA) was placed in between the C-terminal end of the VHH and the c-Myc tag and a glycine-alanine-alanine (GAA) linker was used in between the C-terminal end of the c-Myc tag and the hexahistidine tag. The complete sequence C-terminal of the bivalent VHH that was used: AAA-EQKLISEEDLN-GAA-HHHHHH (SEQ ID NO:53). Fresh overnight cultures were produced by starting from colony streaks and inoculation of 2×TY media supplemented with 2% glucose and 100 μg/ml ampicillin. The overnight cultures were used to inoculate fresh cultures 1:100 in 2×TY media with 0.1% glucose and 100 μg/ml ampicillin. After growing at 37° C. in a shaking incubator for 3 hours, IPTG was added to a 1 mM final concentration and recombinant bivalent VHH were produced during an additional incubation for 4 hours. Cells were spun down and resuspended in 1/50th of the original culture volume of PBS and incubated with head-over-head rotation at 4° C. for 30 minutes. Spheroplasts were spun down by centrifugation at 3,000 g and 4° C. for 20 minutes. Supernatants were transferred to fresh tubes and centrifuged again at 3,000 g and 4° C. for 20 minutes. The supernatant was collected and sodium chloride concentration was adjusted to 500 mM and imidazole concentration to 20 mM. Hexahistidine-tagged bivalent VHH were purified from the extracts using HisTrap FF Crude 5 ml IMAC columns (GE Lifesciences) and HiLoad 16/60 Superdex 75 prep grade gel filtration column (GE Lifesciences) on an AKTAxpress system (GE Lifesciences) following standard procedures.\nNext, it was investigated if binding of microcapsules to surfaces could be improved by using targeting agents comprising multivalent VHH. A series of parallel couplings was performed with equal amounts of monovalent VHH, bivalent VHH, and unrelated VHH. Success of coupling of VHH and multivalent VHH were analyzed as described in Example 4. An ELISA-like assay was performed using high bind half area microplates (Greiner Bio-One) coated with 5 μg/well potato lectin. Control wells included blank wells or wells coated with unrelated antigens. Plates were washed three times with PBS with 0.05%-TWEEN®-20 and blocked with 5% skimmed milk in PBS for 1 to 2 hours. VHH-coupled Uvitex-containing microcapsules were diluted to appropriate densities in 1% skimmed milk in PBS with 0.05%-TWEEN®-20. Five-fold serial dilution series were prepared and allowed to bind to the surface to compare binding of microcapsules coupled with monovalent or bivalent VHH. Microcapsules were added to the antigen-coated or control wells and allowed to bind for 1 hour. Unbound microcapsules were removed by washing five times with PBS with 0.05%-TWEEN®-20. The bottoms of ELISA plate wells were analyzed for bound microcapsules on a macrozoom microscope system (Nikon). Microcapsules were counted using Volocity image analysis software (Perkin Elmer). A DAPI filter was used to visualize Uvitex microcapsules. […] The surface area of microcapsules with coupled bivalent VHH was 15-fold above the surface area of blank microcapsules applied at this microcapsule density while the surface area of microcapsules with monovalent VHH was only six-fold above the surface area of blank microcapsules applied at this microcapsule density. This difference could be explained by an increase in binding strength due to additional avidity of the bivalent VHH compared to monovalent VHH, it could also be that the use of bivalent VHH increases flexibility and spacer length of the coupled targeting agents on microcapsules, or a combination of both.", "data": [{"molecule": "Microcapsules containing uvitex OB VHH 3E6: polyurea microcapsules containing the fluorescent tracer Uvitex OB, coupled with (monovalent) VHH 3E6 (conjugate, left off: small tags and cut ends, polyurea microcapsules containing the fluorescent tracer Uvitex OB, coupled with (monovalent) VHH 3E6) VHH: QVQLQESGGGLVQPGGTLSLSCAASGFNVRWYGMGWFRQAPGKEREGVACISALQETTAYADSVKGRFTLSRDNPKNTLSLQMNNLQPEDTGVYYCATTDCDDSSRMTYTSYLGQGTQVTVSS", "values": [{"measurement": "surface area of bound microcapsules above the surface area of blank microcapsules", "setting": "application of 25-fold less microcapsules, potato lectin", "result": "six-fold"}, {"measurement": "Surface area of bound microcapsules", "setting": "no coating (first series, with potato lectin rows), surface coverage 100%", "result": 74.536}, {"measurement": "Surface area of bound microcapsules", "setting": "potato lectin, surface coverage 4%", "result": 59.377}, {"measurement": "Surface area of bound microcapsules", "setting": "potato lectin, surface coverage 20%", "result": 307.478}, {"measurement": "Surface area of bound microcapsules", "setting": "potato lectin, surface coverage 100%", "result": 415.773}]}]}
